Data: PMC12446771, “Proximity-dependent proteomics and network analysis of adenylyl cyclase isoforms 5, 6, and 9 in cardiomyocytes” (The Journal of Biological Chemistry, 2025)

Biological target: the molecule itself
Assay: immunogold EM spatial mapping (univariate Ripley's K-function); intact apical plasma membrane sheets of BHK cells expressing AC5-YFP or AC6-RFP, 4.5 nm gold on anti-YFP or anti-RFP, TEM at 100,000×

B1: AC5-YFP (enzyme)
chain: not shown
notes: adenylyl cyclase type 5; printed as AC5-YFP in the results and YFP-AC5 in the methods; also called YFP-AC5; source: BHK cells, transfected, on intact apical plasma membrane sheets
  stoichiometry N: 2
